Experimental data reported in patent CN117136070A (CELLDEX THERAPEUTICS INC, dated 2023).

T1: 重组人FcrRIIb (human, UniProt P31994 43-217, limits assumed)
T1 construct: Recombinant, histidine-tagged, captured on anti-penta-His biosensor; also called FcγRIIb; not shown: histidine tag
T1 sequence (looked up): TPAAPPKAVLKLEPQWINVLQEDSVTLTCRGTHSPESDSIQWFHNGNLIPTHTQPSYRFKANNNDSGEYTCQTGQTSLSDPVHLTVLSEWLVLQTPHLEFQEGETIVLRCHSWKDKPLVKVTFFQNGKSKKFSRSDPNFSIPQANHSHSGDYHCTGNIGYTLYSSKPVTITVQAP

T2: 重组人FcrRIIa (human, UniProt P12318 36-218, limits assumed)
T2 construct: Recombinant, histidine-tagged, captured on anti-penta-His biosensor; also called FcγRIIa; not shown: histidine tag
T2 sequence (looked up): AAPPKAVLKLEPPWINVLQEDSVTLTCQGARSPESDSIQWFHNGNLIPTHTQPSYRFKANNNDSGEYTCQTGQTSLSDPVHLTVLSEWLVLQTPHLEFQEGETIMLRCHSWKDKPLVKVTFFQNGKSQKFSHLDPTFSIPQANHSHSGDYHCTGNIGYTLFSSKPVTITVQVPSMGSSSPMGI


Assays:
重组人FcrRIIb = molecular target: T1, 重组人FcrRIIb; test: BLI, His-tagged Fc receptor captured on anti-penta-His biosensor, antibody in solution
KIT (野生型KIT, M-07e细胞) = KIT (野生型KIT, M-07e细胞) (UniProt P10721 26-976, limits assumed); test: cell-based or functional assay
重组人FcrRI = molecular target: T3, 重组人FcrRI (human, UniProt P12314 16-288, limits assumed); test: BLI, His-tagged Fc receptor captured on anti-penta-His biosensor, antibody in solution
T3 construct: Recombinant, histidine-tagged, captured on anti-penta-His biosensor; also called FcγRI; FcgRI; not shown: histidine tag

重组人FcrRIIIa = molecular target: T4, 重组人FcrRIIIa (human, UniProt P08637 17-208); test: as above
T4 construct: Recombinant, histidine-tagged, captured on anti-penta-His biosensor; also called FcγRIIIa; not shown: histidine tag

重组人FcrRIIa = molecular target: T2, 重组人FcrRIIa; test: as above
重组人FcrRIIIb = molecular target: T5, 重组人FcrRIIIb (human, UniProt O75015 17-200); test: as above
T5 construct: Recombinant, histidine-tagged, captured on anti-penta-His biosensor; also called FcγRIIIb; not shown: histidine tag
T5 sequence (O75015 17-200 limits assumed): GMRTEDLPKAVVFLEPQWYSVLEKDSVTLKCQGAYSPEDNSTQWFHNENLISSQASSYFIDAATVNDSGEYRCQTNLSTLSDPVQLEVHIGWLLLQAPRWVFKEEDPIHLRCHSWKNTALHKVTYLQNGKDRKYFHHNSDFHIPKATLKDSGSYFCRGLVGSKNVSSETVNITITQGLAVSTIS

T4 sequence (P08637 17-208 limits assumed): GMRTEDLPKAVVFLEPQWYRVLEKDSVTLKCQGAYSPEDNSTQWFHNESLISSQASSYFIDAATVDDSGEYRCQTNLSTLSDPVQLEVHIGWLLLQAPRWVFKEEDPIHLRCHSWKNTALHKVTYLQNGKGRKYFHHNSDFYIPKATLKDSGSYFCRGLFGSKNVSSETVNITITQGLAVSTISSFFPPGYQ
T3 sequence (P12314 16-288 limits assumed): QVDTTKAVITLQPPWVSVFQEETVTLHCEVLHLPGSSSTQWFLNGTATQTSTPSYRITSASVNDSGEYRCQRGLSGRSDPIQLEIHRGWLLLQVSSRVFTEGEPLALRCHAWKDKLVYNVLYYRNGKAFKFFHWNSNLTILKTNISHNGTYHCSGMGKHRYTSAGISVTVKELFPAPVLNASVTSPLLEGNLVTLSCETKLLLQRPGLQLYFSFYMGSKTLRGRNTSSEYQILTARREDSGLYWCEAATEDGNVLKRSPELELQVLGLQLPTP
Sequence of KIT (野生型KIT, M-07e细胞) (P10721 26-976 limits assumed): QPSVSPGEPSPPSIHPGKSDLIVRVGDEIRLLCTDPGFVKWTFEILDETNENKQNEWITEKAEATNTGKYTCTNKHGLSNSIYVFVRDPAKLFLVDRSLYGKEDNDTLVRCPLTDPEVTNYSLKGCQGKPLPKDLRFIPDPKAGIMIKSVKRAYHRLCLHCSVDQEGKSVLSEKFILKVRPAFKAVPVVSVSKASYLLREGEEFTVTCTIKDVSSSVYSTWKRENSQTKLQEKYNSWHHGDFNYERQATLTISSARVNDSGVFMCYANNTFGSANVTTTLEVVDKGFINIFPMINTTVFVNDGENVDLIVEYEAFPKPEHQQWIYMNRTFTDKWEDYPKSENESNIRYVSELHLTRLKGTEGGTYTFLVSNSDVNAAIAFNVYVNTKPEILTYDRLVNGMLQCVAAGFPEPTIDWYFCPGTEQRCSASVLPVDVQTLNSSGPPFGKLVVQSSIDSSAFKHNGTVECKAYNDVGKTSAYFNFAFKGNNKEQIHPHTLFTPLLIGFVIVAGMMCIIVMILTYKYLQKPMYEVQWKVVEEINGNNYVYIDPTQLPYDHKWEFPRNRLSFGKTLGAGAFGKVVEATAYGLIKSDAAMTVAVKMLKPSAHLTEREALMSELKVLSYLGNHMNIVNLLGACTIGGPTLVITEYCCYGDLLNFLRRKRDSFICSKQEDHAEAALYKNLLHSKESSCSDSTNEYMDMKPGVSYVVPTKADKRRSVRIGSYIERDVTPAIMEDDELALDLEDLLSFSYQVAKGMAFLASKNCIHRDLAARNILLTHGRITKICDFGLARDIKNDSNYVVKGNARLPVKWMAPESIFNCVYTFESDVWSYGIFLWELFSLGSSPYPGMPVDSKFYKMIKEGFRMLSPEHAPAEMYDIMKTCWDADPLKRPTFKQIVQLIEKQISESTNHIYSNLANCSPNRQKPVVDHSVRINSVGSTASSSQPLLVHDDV

Row | binding result (重组人FcrRIIb) | SCF-依赖性M-07e细胞增殖的抑制, 平均IC50 (KIT (野生型KIT, M-07e细胞)) [nM] | binding result (重组人FcrRI) | binding result (重组人FcrRIIIa) | binding result (重组人FcrRIIa) | binding result (重组人FcrRIIIb) | Binder
1 | no binding |  |  |  |  |  | mAbc (antibody, also called 具有相同可变区序列但是未突变的(野生型)人IgG1序列的相应抗体; 具有野生型(未突变)IgG1 Fc域的相应抗体; copies: 2 + 2) VH: not shown VL: DIVMTQSPSSLSASVGDRVTITCKASQNVRTNVAWYQQKPGKAPKALIYSASYRYSGVPDRFTGSGSGTDFTLTISSLQPEDFADYFCQQYNSYPRTFGGGTKVEIKRTVAAPSVFIFPPSDEQLKSGTASVVCLLNNFYPREAKVQWKVDNALQSGNSQESVTEQDSKDSTYSLSSTLTLSKADYEKHKVYACEVTHQGLSSPVTKSFNRGEC
2 | no binding (tested: 500nM) | 1.11 | no binding (tested: 500nM) | no binding (tested: 500nM) | no binding (tested: 500nM) | no binding (tested: 500nM) | mAb1 (antibody, human IgG1, kappa, also called 抗-KIT抗体mAb1; Fc突变的抗-KIT抗体; copies: 2 + 2) heavy: QVQLVQSGAEVKKPGASVKLSCKASGYTFTDYYINWVRQAPGKGLEWIARIYPGSGNTYYNEKFKGRATLTADKSTSTAYMQLSSLRSEDTAVYFCARGVYYFDYWGQGTTVTVSSASTKGPSVFPLAPSSKSTSGGTAALGCLVKDYFPEPVTVSWNSGALTSGVHTFPAVLQSSGLYSLSSVVTVPSSSLGTQTYICNVNHKPSNTKVDKKVEPKSCDKTHTCPPCPAPEAQGGPSVFLFPPKPKDTLYITREPEVTCVVVDVSHEDPEVKFNWYVDGVEVHNAKTKPREEQYNSTYRVVSVLTVLHQDWLNGKEYKCQVSNKALPAPIEKTISKAKGQPREPQVYTLPPSRDELTKNQVSLTCLVKGFYPSDIAVEWESNGQPENNYKTTPPVLDSDGSFFLYSKLTVDKSRWQQGNVFSCSVMHEALHNHYTQKSLSLSPG light: DIVMTQSPSSLSASVGDRVTITCKASQNVRTNVAWYQQKPGKAPKALIYSASYRYSGVPDRFTGSGSGTDFTLTISSLQPEDFADYFCQQYNSYPRTFGGGTKVEIKRTVAAPSVFIFPPSDEQLKSGTASVVCLLNNFYPREAKVQWKVDNALQSGNSQESVTEQDSKDSTYSLSSTLTLSKADYEKHKVYACEVTHQGLSSPVTKSFNRGEC
